# Experimental data as given in the RNAGym collection of RNA variant scans (doi:10.1073/pnas.2313332121).
# B1: TPR t1 (parent)
# chain: GACCAAUCUGCCCUCAGAGCUCGAGAACAUCUUCGGAUGCAGAGGAGGCAGGCUUCGGUGGCGCGAUAGCGCCAACGUCCUCAACCUCCAAUGCAUCCCACCACAUGAUGAUGCCUGAAGAGCCUUGGUUUUUUG
# Variants of: B1
# Assay: polymerase ribozyme fitness, log enrichment relative to wild type (log ratio); higher = more active; in vitro selection for triplet polymerase activity
# Procedure, shortened: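 Fitness compares each genotype's enrichment to that of the wild type on a logarithmic scale, averaging replicates with inverse-variance weights. The logarithm is base 2. Enrichment came from Illumina sequencing of input and output libraries after one triplicate round of in vitro selection, which included frozen incubation at −7 °C, of PCR-built, transcribed mutant libraries of each subunit of a heterodimeric triplet polymerase ribozyme. Only genotypes with ≥10 input reads and ≥1 read per output were kept.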
row,Variant,polymerase ribozyme fitness (log ratio)
1,GACCAAUCUGCCCUCAGAGCUCGAGAACAUCUUGGGAUGCAGAGGAGGCAGGCUUCGGUGGCGCGAUAGCGCUAACGUCCUCAACCUCCAAUGCAUCCCACCAGAUGAUGAUGCCCGAAGCUCCUUGGUUUUUUG,-6.01
2,GACCAAUCUGCCCUCAGAGCUCGAGAACAUCUUGGGAUGCAGAGGAGGCAGGCUUCGGUGGCGCGAUAGCGCCAACGUCCUCAACCUCCAAUGCAUCCCACCACAUGAUGAUGCCUCAAGAGCAUUGGUUUUUUG,-6.44
3,GACCAAUCUGCCCUCAGAGCUCGAGAACAUCUUGGGAUGCAGAGGAGGCAGGCUUCGGUGGCGCGAUAGCGCCAACGUCCUCAACCUCCAAUGCAUCCCACCACAUGAUGAUGCCUGAAGAGCUUUGGUUUUUUG,-4.28
4,GACCAAUCUGCCCUCAGAGCUCGAGAACAUCUUGGGAUGCAGAGGAGGCAGGCUUCGGUGGCGCGAUAGCGCCAACGUCCUCAACCUCCAAUGCAUCCCACCACAUGAUGAUGCCUGAAGAGCAUUGGUUUUUUG,-3.61
5,GACCAAUCUGCCCUCAGAGCUCGAGAACAUCUUGGGAUGCAGAGGAGGCAGGCUUCGGUGGCGCGACAGCGCCAACGUCCUCAACCUCCAAUGCAUCCCACCGCAUCAUGAUGCCCGAAGAGGCUUGGUUUUUUG,-7.28
6,GACCAAUCUGCCCUCAGAGCUCGAGAACAUCUUGGGAAGCAGAGGAGACAGGUUUCGGUGGCGCGAUAGCGCCAACGUCCUCAACCUCCAAUGCAUCCCACCACAUGAUGUUGCCUGAAGAGCCUUGGUUUUUUG,-6
7,GACCAAUCUGCCCUCAGAGCUCGAGAACAUCUUGGAAUGCAGAGGAGGCAGGCUUCGGUGGCGCGAUAGCGCCAACGUCCUCAACCUCCAAUGCAACCCACCACAUGAUGAUGCCUGAAGAGCUUUGGUUUUUUG,-6.45
8,GACCAAUCUGCCCUCAGAGCUCGAGAACAUCUUGGGAUGCAGAGGAGGCAGGCUUCGGUGGCGCGAUAGCGCCAACGUCCUCCACCUCCAAUGCAUCCCACCACAUGAUGAUGCCUGAAGAGCCUUGGUUUUUUG,-4.9
9,GACCAAUCUGCCCUCAGAGCUCGAGAACAUCUUGGGAUGCAGAAGAGGCAGGCUUCGGUGGCGCGAUAGCGCCAACGUCCUCAACCUCCAAUGCAUCCCACCACAUGAUGAUGCCUGAAGAGCCUUGGUUUUUUG,-6.88
10,GACCAAUCUGCCCUCAGAGCUCGAGAACAUCUUGGGAUGCAGAGGAGGCAGGCUUCGGUGGCCCGAUAGCGCCAACGUCCUCAACCUCCAAUGCAUCCCACCACAUGAUGAUGCCUGAAGAGCCUUGGUUUUUUG,-6.66
11,GACCAAUCUGCCCUCAGAGCUCGAGAACAUCUUGGGAUGCAGAGGAGGCAGGCGUCGGUGGCGCGAUAUCGCCAACGUCCUCAACCUCCAAUGCAUCCCACCACAUGAUGAUGCCUGAAGAGCCUUGGUUUUUUG,-5.25
12,GACCAAUCUGCCCUCAGAGCUCGAGAACAUCUUGGGAUGCAGAGGAUGCAGGCUGCGGUGCCCCGAUAGCGCCAACGUCUUCAACCUCCAAUGCAUCCCACCACAUGAUGAUGCCUGAAGAGCCUUGGUUUUUUG,-7.69
13,GACCAAUCUGCCCUCAGAGCUCGAGAACAUCUUGGGAUGCAGAUGAGGCAGGCUUCGGUGGUGCGAUAGCGCCAACAUCCUCAACCUCCAAUGCAUCCCACCACAUGAUCAUGCCUGAAGAGCCUUGGUUUUUUG,-6.64
14,GACCAAUCUGCCCUCAGAGCUCGAGAACAUCUUGGGAUGCAGAGGAGGCAGGCUUCGGUGGCGCGAUAGCGCUAACGUCCUCAACCUCCAAUGCAUCCCACCACAUGAUGAUGCCUGAAGAGCCUUGGUUUUUUG,-5.17
15,GACCAAUCUGCCCUCAGAGCUCGAGAACAUCUUUGGAUGCGGAGGAGGCAGGCUUUGGUGGCCCGAUAGCGCCAACGUCCUCAACCUCAAAUGCUUCCCACCAGAUGAUAAUGCCUGAAGAGCCUUGGUUUUUUG,-5.19
16,GACCAAUCUGCCCUCAGAGCUCGAGAACAUCUUGGGAUGCAGAGGAGGUAGGCUUCGGUGGCGCGAUAGCGCCAACGUCCUCAACCUCCAAUGCAUUCCACCACAUGAUGAUGGCUGAAGAGCCUUGGUUUUUUG,-7.24
17,GACCAAUCUGCCCUCAGAGCUCGAGAACAUCUUGGGAUGCAGAGGAGGCAGGCUUCGGUGGCGCGAUAGCGCCAACGUCCUCAACCUCCAAUGCAUCCCACCACAUGAUGAAGCCUGAAGAGCCUUGGUUUUUUG,-4.47
18,GACCAAUCUGCCCUCAGAGCUCGAGAACAUCUUGGGAUGCAGAGGAGGCAGGCUUCGGUGGCGCGAUAGCGCCAACGUCCUCAACCUCCAAUGCAUCCCACCACAUAAUGAUGCCUGAAGAGCCUUGGUUUUUUG,-7.98
19,GACCAAUCUGCCCUCAGAGCUCGAGAACAUCUUGGGAUGCAGAGGAGGCAGGCUUCGGUGGCGCGAUAGCGCCAACGUCCUUAACCUCCAAUGCAUCCCACCACAUGAUGAUGCCUGAAGAGCCUUGGUUUUUUG,-6.19
20,GACCAAUCUGCCCUCAGAGCUCGAGAACAUCUUUGGAUGCAGAGGAGGCCGGCUUCGGUGGCGCGAUAGGGCCAACGUGCUCAACCUCAAAUGCAUCCCACGACAUGAUGAUGCCUGAAGAGCUUUGGUUUUUUG,-6.39
21,GACCAAUCUGCCCUCAGAGCUCGAGAACAUCUUGGGAUGCAGAGGAGGCAGGCUUCGGUGGCGCGAUAGCGCAAACGUCCUCAACCUCCAAUGCAUCCCACCACAUGAUGAUGCCAGAAGUGCCUUGGUUUUUUG,-4.42
